Substrate in this data set: N[C@@H](CC(=O)O)C(=O)O
Description: Kinetics of recombinant his-tagged, refolded maize asparagine synthetase AsnS4 (substrate titration, asparagine by HPLC). The format is biochemical, Zea mays. Particulars: other: Zm AsnS4, 100 mM Hepes, pH 8.0, 10 mM MgCl2.
Description: To assay asparagine synthetase activity, desalted protein extracts (10-50 μL) were added to wells containing 100 μL assay solution (100 mM Hepes, pH 8.0, 10 mM MgCl2, 2 mM aspartate, 5 mM DTT, 10 mM ATP, 1 mM amino(oxy)acetic acid (aspartate amino transferase inhibitor), 1 mM aspartic semialdehyde (asparaginase inhibitor). To start the reaction, glutamine (final concentration of 2 mM for standard assay) was added to the solution, which was then mixed. The assay mixture was then incubated for 1 to 2 hours. The reaction was then stopped by the addition of an equal volume of 20% (w/v) trichloroacetic acid. The mixture was then filtered to remove precipitate and asparagine was measured by HPLC. Sample size was increased from 0.5 μL to 2.5 μL for HPLC, excitation wavelength was reduced from 340 nm to 235 nm, and fluorimeter gain was increased from 10 to 13.
This example describes the cloning of the nucleotide sequence for AsnS1 (SEQ ID NO: 1), AsnS2 (SEQ ID NO: 3), AsnS3 (SEQ ID NO: 5) and AsnS4 (SEQ ID NO: 50) into E. coli expression vectors, as well as the expression, purification and kinetics of the recombinant forms of the four AsnS isoforms.
These vectors are expected to produce recombinant proteins with C-terminal histidine tags.
The E. coli expression vectors described in the previous paragraph were used to transform Rosetta DE5™ E. coli cells (Novagen). […]

B1: Zea mays asparagine synthetase Zm AsnS4 (SEQ ID NO: 51, encoded by SEQ ID NO: 50) (Zea mays) (protein)
chain: MCGILAVLGCSDCSQARRARILACSRRLKHRGPDWSGLYQHEGNFLAQQRLAIVSPLSGDQPLFNEDRTVVVVANGEIYNHKNVRKQFTGAHSFSTGSDCEVIIPLYEKYGENFVDMLDGVFAFVLYDTRDRTYVAARDAIGVNPLYIGWGSDGSVWMSSEMKALNEDCVRFEIFPPGHLYSSAGGGFRRWYTPHWFQEQVPRTPYQSLVLREAFEKAVIKRLMTDVPFGVLLSGGLDSSLVASVTKRHLVETDAAEKFGTELHSFVVGLEGSPDLKAAREVADYLGTTHHEFHFTVQDGIDAIEEVIYHDETYDVTTIRASTPMFLMARKIKSLGVKMVLSGEGSDELLGGYLYFHFAPNREELHRETCRKVKALHQYDCLRANKATSAWGLEVRVPFLDKEFVDVAMGMDPEWKMYDKNLGRIEKWVLRKAFDDEEHPYLPEHILYRQKEQFSDGVGYNWIDGLKSFTEQQVTDEMMNSAAQMFPYNTPVNKEAYYYRMIFERLFPQDSARETVPWGPSIACSTPAAIEWVEQWKASNDPSGRFISSHDSAATDRTGDKLAVANGGGHGAANGTVNGNDVAVAIAV
notes: 588 aa
With B1, the Km (in general, the substrate concentration at which the rate is half of its maximum) came to 930 µM.
